Test results as given in patent US20190062420A1 (Janssen / Centocor, published 2019).
Positions count from the first letter of the chain named. Each block holds one binder with its values, some of them ahead of it.

Key:
[1] = biological target: T1, human FcγRIIB (NM_004001) expressed on cells (human, UniProt P31994 43-310); assay: cell-based or functional assay
T1 sequence: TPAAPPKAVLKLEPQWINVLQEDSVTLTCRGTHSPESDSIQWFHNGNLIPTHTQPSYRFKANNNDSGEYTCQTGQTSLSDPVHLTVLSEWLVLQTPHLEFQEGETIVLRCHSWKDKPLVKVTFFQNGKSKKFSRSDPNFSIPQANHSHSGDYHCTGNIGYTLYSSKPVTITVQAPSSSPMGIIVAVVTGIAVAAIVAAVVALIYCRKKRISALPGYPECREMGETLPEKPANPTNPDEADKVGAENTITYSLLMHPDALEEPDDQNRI

[2] = biological target: T1, human FcγRIIB (NM_004001) expressed on …; assay: flow cytometry; Expi293F cells transfected with FcγRIIB
Method: (§1) Plasmids expressing cDNAs encoding human FcγRI (NM_000566) (SEQ ID NO: 44), FcγRIIA (NM_021642) (SEQ ID NO: 2), FcγRIIB (NM_004001) (SEQ ID NO: 3), and FcγRIIIA (NM_000569) (SEQ ID NO: 45) (Origene) were transiently transfected into Expi293F cells by ExpiFectamine293 transfection kit (Life Technologies). Flow cytometry assays were performed 48 h after transfection.
(§2) 2×10⁵ cells per well were seeded in 96-well plate and blocked in BSA Stain Buffer (BD Biosciences, San Jose, USA) for 30 min at 4° C. Cells were incubated with test mAbtyrin on ice for 1.5 h at 4° C. After being washed twice with BSA stain buffer, the cells were incubated with R-PE labeled anti-human or anti-mouse IgG secondary antibody (Jackson Immunoresearch Laboratories) for 45 min at 4° C. The cells were washed twice in stain buffer and then resuspended in 150 μL of Stain Buffer containing 1:200 diluted DRAQ7 live/dead stain (Cell Signaling Technology, Danvers, USA). PE and DRAQ7 signals of the stained cells were detected by Miltenyi MACSQuant flow cytometer (Miltenyi Biotec, Auburn, USA) using B2 and B4 channel respectively. Live cells were gated on DRAQ7 exclusion and the geometric mean fluorescence signals were determined for at least 10,000 live events collected. FlowJo software (Tree Star) was used for analysis. Data was plotted as the logarithm of antibody concentration versus mean fluorescence signals. Nonlinear regression analysis was performed by GraphPad Prism 6 (GraphPad Software, Inc.) and EC₅₀ values were calculated.

[3] = biological target: T2, human FcγRIIA (NM_021642) expressed on cells (human, UniProt P12318 36-317); assay: cell-based or functional assay
T2 sequence: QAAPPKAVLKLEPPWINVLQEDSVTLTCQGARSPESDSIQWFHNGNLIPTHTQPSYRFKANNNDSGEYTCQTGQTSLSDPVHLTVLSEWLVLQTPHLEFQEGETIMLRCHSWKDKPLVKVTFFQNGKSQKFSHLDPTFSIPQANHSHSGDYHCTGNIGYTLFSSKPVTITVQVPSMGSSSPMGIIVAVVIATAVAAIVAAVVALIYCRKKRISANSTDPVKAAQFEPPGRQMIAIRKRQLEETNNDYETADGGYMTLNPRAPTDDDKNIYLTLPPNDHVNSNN

[4] = biological target: T3, human OX40 expressed on HEK-Blue: OX40 cells (human, UniProt P43489 29-277); assay: flow cytometry; HEK-Blue: OX40 cells
T3 construct: also called CD134
T3 sequence: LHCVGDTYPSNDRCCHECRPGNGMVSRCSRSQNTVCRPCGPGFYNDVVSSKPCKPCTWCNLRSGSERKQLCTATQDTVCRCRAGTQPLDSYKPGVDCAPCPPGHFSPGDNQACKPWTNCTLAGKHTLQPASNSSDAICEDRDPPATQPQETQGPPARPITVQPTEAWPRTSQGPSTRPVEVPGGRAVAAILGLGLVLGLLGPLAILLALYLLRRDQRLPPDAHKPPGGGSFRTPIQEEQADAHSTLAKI
Method: as §2
The binding of mAbtyrins on OX40 expressed on cell surface were investigated by flow cytometry assay described for testing mAbtyrin binding to FcγR. A stable HEK-Blue reporter cell line expressing human OX40 (HEK-Blue: OX40) was established by transfection OX40 expression plasmid (pUNO1-hOX40) into HEK-Blue™ Null 1 cells engineered to express a secreted embryonic alkaline phosphatase (SEAP) reporter gene under the control of NF-κB-inducible promoter (IFN-β minimal promoter). mAbtyrins were incubated with HEK-Blue: OX40 cells and the binding was detected by flow cytometry using a PE-labeled Goat F(ab′)₂ against Human IgG(γ).

[5] = biological target: T2, human FcγRIIA (NM_021642) expressed on …; assay: flow cytometry; Expi293F cells transfected with FcγRIIA
Method: as §1, §2

[6] = biological target: T1, human FcγRIIB (NM_004001) expressed on …; assay: flow cytometry; Raji cells (express predominantly FcγRIIB)
Method: as §2
Raji cell is a cell line derived from B cells that express predominantly FcγRIIB. The binding of mAbtyrins on Raji cells were investigated by flow cytometry assay described for testing mAbtyrin binding to FcγR. Binding of the mAbtyrins were detected by flow cytometry using a PE-labeled Goat F(ab′) against Human IgG(γ).

[7] = biological target: T1, human FcγRIIB (NM_004001) expressed on …; assay: as above; remark: listed apart in the source
[8] = biological target: T4, FcγRIIB protein (human, UniProt P31994 43-217, biotinylated (SureLINK Biotin Kit) in the ELISA of Example 1); assay: ELISA; bt-FcγRIIB on streptavidin plate, purified FN3 domain titrated
T4 construct: Soluble/recombinant antigen used in ELISA; also called bt-FcγRIIB; recombinant FcγRIIB protein
T4 sequence: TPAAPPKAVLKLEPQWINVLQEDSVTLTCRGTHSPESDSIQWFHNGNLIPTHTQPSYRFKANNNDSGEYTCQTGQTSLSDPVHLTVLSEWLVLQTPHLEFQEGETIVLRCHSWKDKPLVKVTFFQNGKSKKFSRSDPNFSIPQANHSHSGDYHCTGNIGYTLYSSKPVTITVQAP
Method: (§3) For primary ELISA, Maxisorp 96-well plates were loaded with 100 μL per well of streptavidin (Promega; 5 μg/mL in PBS) and then held at 4° C. overnight. The next day, the streptavidin-coated plates were washed 3×TBST and then blocked with 250 μL Starting Block T20 (Pierce-cat#37543). After a 1 h incubation, all plates were washed 3 times with 1×TBST, loaded with 100 μL per well of either bt-FcγRIIA, bt-FcγRIIB, or bt-HSA (negative screen) all at 1 μg/mL, and held at room temperature for 1 h. The previously lysed FN3 domains were centrifuged at 3500 rpm for 10 minutes, diluted 1:10 in Starting Block T20 and added 100 μL each to the plates. After a 1 h incubation at room temperature, the plates were washed 3× with 1×TBST and the wells were loaded with 100 μL of a HRP conjugated rabbit polyclonal antibody against tencon 27. After a final 1 h incubation at room temperature, the plates were washed 3× with 1×TBST, loaded with 100 μL per well of the chemiluminescence substrate POD (Roche), and read in a Perkin Elmer Envision plate reader. Positive binding colonies (those clones showing 5-fold higher binding to FcγRIIA or FcγRIIB when compared to HSA) were subjected to Sanger sequencing and identified coding sequences were in silico translated to amino acid sequences. Sequence unique FN3 domains were expressed in BL21 cells and purified using nickel sepharose plates. Antigen binding of purified FN3 domains in a dilution series was performed. Specifically, in an ELISA format, Streptavidin coated plates (Promega #Z7041) were used to capture 50 μL of 1 μg/mL of either bt-FcγRIIB, bt-FcγRIIA, or as a negative control against sticky FN3 domains bt-HSA. To this FN3 domains were added at 10 μM then diluted 1:5 down to 128 pM, and detected for binding using a HRP conjugated rabbit polyclonal against tencon 27 and POD substrate (Roche #11582950001). Binding curves and EC50 values were calculated using X=log(x) transformation and non-linear regression (curved slope) calculations of Prism GraphPad.

[9] = biological target: T5, FcγRIIA protein (human, UniProt P12318 36-217, biotinylated (SureLINK Biotin Kit) in the ELISA of Example 1); assay: ELISA; bt-FcγRIIA on streptavidin plate, purified FN3 domain titrated
T5 construct: Soluble/recombinant antigen used in ELISA; also called bt-FcγRIIA; recombinant FcγRIIA protein
T5 sequence: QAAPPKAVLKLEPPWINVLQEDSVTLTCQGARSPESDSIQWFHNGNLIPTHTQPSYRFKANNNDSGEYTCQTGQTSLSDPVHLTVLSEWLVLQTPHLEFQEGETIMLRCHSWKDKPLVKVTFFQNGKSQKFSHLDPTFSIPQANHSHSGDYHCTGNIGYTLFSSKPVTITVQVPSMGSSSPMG
Method: as §3

B1: OX40SF2IgG2sigma_R2BS26_HC-C (bispecific antibody)
heavy: QVQLVQSGAEVKKPGSSVKVSCKASGYTFKDYTMHWVRQAPGQGLEWIGGIYPNNGGSTYNQNFKDRVTLTADKSTSTAYMELSSLRSEDTAVYYCARMGYHGPHLDFDVWGQGTTVTVSSASTKGPSVFPLAPCSRSTSESTAALGCLVKDYFPEPVTVSWNSGALTSGVHTFPAVLQSSGLYSLSSVVTVPSSNFGTQTYTCNVDHKPSNTKVDKTVERKCCVECPPCPAPPAAASSVFLFPPKPKDTLMISRTPEVTCVVVDVSAEDPEVQFNWYVDGVEVHNAKTKPREEQFNSTFRVVSVLTVLHQDWLNGKEYKCKVSNKGLPSSIEKTISKTKGQPREPQVYTLPPSREEMTKNQVSLTCLVKGFYPSDIAVEWESNGQPENNYKTTPPMLDSDGSFFLYSKLTVDKSRWQQGNVFSCSVMHEALHNHYTQKSLSLSPGKGGGGGSGGGGSGGGGSGGGGSLPAPKNLVVSRVTEDSARLSWTAPDAAFDSFPIAYIEYWTGGEAIVLTVPGSERSYDLTGLKPGTEYFVWIHGVKGGAWSSPLSAIFTT
light: DIQMTQSPSSLSASVGDRVTITCKASQDVGAAVAWYQQKPGKAPKLLIYWASTRHTGVPSRFSGSGSGTDFTLTISSLQPEDFATYYCQQYINYPLTFGGGTKVEIKRTVAAPSVFIFPPSDEQLKSGTASVVCLLNNFYPREAKVQWKVDNALQSGNSQESVTEQDSKDSTYSLSSTLTLSKADYEKHKVYACEVTHQGLSSPVTKSFNRGEC
notes: mAbtyrin: anti-OX40 antibody OX40SF2, effector silent IgG2sigma, with linker and R2BS26 FN3 domain at the C-terminus of the heavy chain; also called mAbtyrin
% activity at 1 µg/ml with Raji cells (HEK-Blue: OX40 NF-κB reporter, relative to 1 µg/ml OX40 ligand) [1]: 103%
fold of agonism enhancement upon crosslinking (Raji cells) [1]: 25 fold
EC50 [2]: 1.38 µg/mL
% OX40 cell killed by macrophages (ADCP, 1 µg/ml) [3]: 92%
Binding to HEK-Blue: OX40 cells (mean signal at 1 µg/ml) [4]: 10200 mean fluorescence signal
EC50 [5]: 0.323 µg/mL
Binding to Raji cells mean signals at 10 µg/ml [6]: 2290 mean fluorescence signal
EC50 [6]: > 10 µg/mL
fold binding signal over OX40SF2IgG2sigma at 10 µg/mL [7]: ≥ 6 fold

B2: OX40SF2IgG2sigma_R2BS9_HC-C (bispecific antibody)
heavy: B1 heavy with P500W, A502Y, I504L, T508R, W538Q, A546Q, W547Y, S549Y
light: B1 light
notes: mAbtyrin: anti-OX40 antibody OX40SF2, effector silent IgG2sigma, with linker and R2BS9 FN3 domain at the C-terminus of the heavy chain; also called mAbtyrin
% activity at 1 µg/ml with Raji cells (HEK-Blue: OX40 NF-κB reporter, relative to 1 µg/ml OX40 ligand) [1]: 88.1%
fold of agonism enhancement upon crosslinking (Raji cells) [1]: 21 fold
EC50 [2]: 1.51 µg/mL
% OX40 cell killed by macrophages (ADCP, 1 µg/ml) [3]: 85%
Binding to HEK-Blue: OX40 cells (mean signal at 1 µg/ml) [4]: 8900 mean fluorescence signal
EC50 [5]: 0.498 µg/mL
Binding to Raji cells mean signals at 10 µg/ml [6]: 3260 mean fluorescence signal
EC50 [6]: > 10 µg/mL
fold binding signal over OX40SF2IgG2sigma at 10 µg/mL [7]: ≥ 6 fold

B4: R2BS29 (designed binder)
chain: LPAPKNLVVSRVTEDSARLSWTAPDAAFDSFPIYYWEYRVGGEAIVLTVPGSERSYDLTGLKPGTEYFVYINGVKGGEESRPLSAIFTT
notes: expressed in E. coli BL21 and purified on nickel sepharose; also called R2BS29 FN3 domain; R2B29
EC50 [8]: 3.57 nM
EC50 [9]: 3.22 nM

B6: R2BS39 (designed binder)
chain: LPAPKNLVVSRVTEDSARLSWTAPDAAFDSFLIQYQESEKVGEAIVLTVPGSERSYDLTGLKPGTEYTVSIYGVSHGPWYNYGEWRSNPLSAIFTT
notes: expressed in E. coli BL21 and purified on nickel sepharose; also called R2BS39 FN3 domain
EC50 [8]: 419 nM
EC50 [9]: 15.5 nM

B7: R2BS26 (designed binder)
chain: B4 chain with Y34A, W36I, R39W, V40T, Y70W, N72H, E78A, E79W, R81S
notes: expressed in E. coli BL21 and purified on nickel sepharose; also called R2BS26 FN3 domain
EC50 [8]: 5.3 nM
EC50 [9]: 6.51 nM

Second part, the binder after the results:

EC50 [8]: 7.59 nM
EC50 [9]: 27.3 nM
B3: R2BS6 (designed binder)
chain: LPAPKNLVVSRVTEDSARLSWTAPDAAFDSFLIQYQESEKVGEAIVLTVPGSERSYDLTGLKPGTEYTVSIYGVQYAAWYLPRHHEASNPLSAIFTT
notes: expressed in E. coli BL21 and purified on nickel sepharose; also called R2BS6 FN3 domain

EC50 [8]: 7.32 nM
EC50 [9]: 5.5 nM
B5: R2BS56 (designed binder)
chain: B4 chain with P32S, Y34A, V40K, Y70L, N72Y, E78W, E79Q, R81K
notes: expressed in E. coli BL21 and purified on nickel sepharose; also called R2BS56 FN3 domain; R2B56

EC50 [8]: 4.51 nM
EC50 [9]: 5.49 nM
B8: R2BS9 (designed binder)
chain: B4 chain with P32W, W36L, R39W, V40R, Y70Q, N72H, E78Q, E79Y, R81Y
notes: expressed in E. coli BL21 and purified on nickel sepharose; also called R2BS9 FN3 domain

EC50 [8]: 43 nM
EC50 [9]: 9.6 nM
B9: R2BS12 (designed binder)
chain: B4 chain with P32L, Y34A, W36A, R39W, V40E, I45V, Y70Q, E78F, E79W, R81I
notes: expressed in E. coli BL21 and purified on nickel sepharose; also called R2BS12 FN3 domain; R2B12
